Results as given in patent publication US20240270821A1, “GIP/GLP1/GCG TRI-RECEPTOR AGONISTS AND USES THEREOF” (priority 2023, published 2024).
Numbering of substitutions follows the chain as printed. Starred links: 1 amine or outer side, 2 acyl side, 3 side chain; linkers in the order of their positions; H or OH if unused. Non-standard residues stand in square brackets, D forms with d. Groups on a side chain read outwards from the residue. No end group written: not given here. *: point of attachment. C20 diacid = O=C(O)CCCCCCCCCCCCCCCCCCC(=O)*; γGlu = O=C(O)[C@H](CCC(=O)[*:2])N[*:1]; αMeL = CC(C)C[C@](C)(N)C(=O)O; Orn = NCCC[C@H](N)C(=O)O; AEEA = NCCOCCOCC(=O)O; Aib = CC(C)(N)C(=O)O

T1: human GIP receptor (human) (UniProt P48546)
T1 sequence (looked up): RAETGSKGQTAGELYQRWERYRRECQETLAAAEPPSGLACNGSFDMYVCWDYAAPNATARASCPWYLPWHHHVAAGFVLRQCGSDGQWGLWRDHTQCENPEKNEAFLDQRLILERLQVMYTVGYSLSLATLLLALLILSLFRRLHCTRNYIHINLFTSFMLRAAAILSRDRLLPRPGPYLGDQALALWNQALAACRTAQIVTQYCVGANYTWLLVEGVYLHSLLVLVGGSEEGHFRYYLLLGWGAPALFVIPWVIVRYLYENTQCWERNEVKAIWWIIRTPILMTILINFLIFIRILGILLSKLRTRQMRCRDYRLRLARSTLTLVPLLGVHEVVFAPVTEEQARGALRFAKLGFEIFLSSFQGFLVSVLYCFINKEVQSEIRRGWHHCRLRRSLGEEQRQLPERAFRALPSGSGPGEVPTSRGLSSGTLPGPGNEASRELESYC

B1: Example 496 (peptide)
chain: YXQGTFTSDFSXXLDKKAQXAFIEXLLEGGPSSGAPPPGGS
modifications: synthetic construct; SITE 2: note = 2-Aminoisobutyric Acid; SITE 12: note = L-ornithine; SITE 13: note = alpha-methyl-leucine; SITE 17: note = Lysine is chemically modified through conjugation of the epsilon-amino group of the Lysine side chain with (2-[2-(2-Amino-ethoxy)-ethoxy]-acetyl)-(gamma-Glu)
B2: Example 314 (peptide)
chain: Y[Aib]QGTFTSDYSK[αMeL]LDKK([AEEA-γGlu-C20 diacid])AQQAFIQWLIEGGPSSGEPPPSEG-NH2
B3: Example 324 (peptide)
chain: Y[Aib]QGTFTSDYSI[αMeL]LDKIAAK([AEEA-AEEA-γGlu-C20 diacid])QFVEWLLA[Aib]GPSSGEPPPSEG-NH2
B4: Example 325 (peptide)
chain: Y[Aib]QGTFTSDYSI[αMeL]LDKQAAK([AEEA-AEEA-γGlu-C20 diacid])QFVNWLLA[Aib]GPSSGEPPPSEG-NH2
B5: Example 326 (peptide)
chain: Y[Aib]QGTFTSDYSI[αMeL]LDKQAAK([AEEA-AEEA-γGlu-C20 diacid])QFVEWLIA[Aib]GPSSGEPPPSEG-NH2
B6: Example 650 (SEQ ID NO: 656) (peptide)
chain: YXQGTXTSDXSIXLDKKAQXXFIEYLAEGGPSSGEPPPEGSEE
modifications: synthetic construct; SITE 2: note = 2-Aminoisobutyric Acid; SITE 6: note = alpha-methyl-2-fluoro-L-phenylalanine; SITE 10: note = 3-(4-Pyridyl)-L-alanine; SITE 13: note = alpha-methyl-leucine; SITE 17: note = Lysine is chemically modified through conjugation of the epsilon-amino group of the Lysine
B7: Example 652 (SEQ ID NO: 658) (peptide)
chain: B6 chain with A27T
modifications: synthetic construct; SITE 2: note = 2-Aminoisobutyric Acid; SITE 6: note = alpha-methyl-2-fluoro-L-phenylalanine; SITE 10: note = 3-(4-Pyridyl)-L-alanine; SITE 13: note = alpha-methyl-leucine; SITE 17: note = Lysine is chemically modified through conjugation of the epsilon-amino group of the Lysine
B8: Example 651 (SEQ ID NO: 657) (peptide)
chain: B6 chain with A27S
modifications: synthetic construct; SITE 2: note = 2-Aminoisobutyric Acid; SITE 6: note = alpha-methyl-2-fluoro-L-phenylalanine; SITE 10: note = 3-(4-Pyridyl)-L-alanine; SITE 13: note = alpha-methyl-leucine; SITE 17: note = Lysine is chemically modified through conjugation of the epsilon-amino group of the Lysine
B9: Example 653 (SEQ ID NO: 659) (peptide)
chain: B6 chain with A27Q
modifications: synthetic construct; SITE 2: note = 2-Aminoisobutyric Acid; SITE 6: note = alpha-methyl-2-fluoro-L-phenylalanine; SITE 10: note = 3-(4-Pyridyl)-L-alanine; SITE 13: note = alpha-methyl-leucine; SITE 17: note = Lysine is chemically modified through conjugation of the epsilon-amino group of the Lysine
B10: Example 317 (peptide)
chain: Y[Aib]QGTFTSDYSI[αMeL]LDKQAAK([AEEA-AEEA-γGlu-C20 diacid])AFVEWLLA[Aib]GPSSGEPPPSEG-NH2
B11: Example 659 (SEQ ID NO: 665) (peptide)
chain: YXQGTXTSDXSILLDKKAQXAFIEYLEEGGPSSGAPPPEGTE
modifications: synthetic construct; SITE 2: note = 2-Aminoisobutyric Acid; SITE 6: note = alpha-methyl-2-fluoro-L-phenylalanine; SITE 10: note = 3-(4-Pyridyl)-L-alanine; SITE 17: note = Lysine is chemically modified through conjugation of the epsilon-amino group of the Lysine side chain with (gamma-Glu)2-CO-(CH2)1
B12: Example 327 (peptide)
chain: Y[Aib]QGTFTSDYSI[αMeL]LDKQAAK([AEEA-AEEA-γGlu-C20 diacid])QFVEWLLA[Aib]GPSSGAPPPSEG-NH2
B13: Example 328 (peptide)
chain: Y[Aib]QGTFTSDYSI[αMeL]LD[Orn]QAAK([AEEA-AEEA-γGlu-C20 diacid])QFVEWLLA[Aib]GPSSGEPPPSEG-NH2
B14: Example 318 (peptide)
chain: Y[Aib]QGTFTSDYSI[αMeL]LDKQAAK([AEEA-AEEA-γGlu-C20 diacid])QFIEWLIEGGPSSGEPPPGEG-NH2
B15: Example 320 (peptide)
chain: Y[Aib]QGTFTSDYSI[αMeL]LDKQAAK([AEEA-AEEA-γGlu-C20 diacid])QFVEWLLAGGPSSGEPPPGEG-NH2
B16: Example 319 (peptide)
chain: Y[Aib]QGTFTSDYSI[αMeL]LDKQAAK([AEEA-AEEA-γGlu-C20 diacid])QFIEWLIEGGPSSGEPPPGAE-NH2

Target: hGLP-1R (Homo sapiens, UniProt P43220)
Assay: cell-based or functional assay

Sequence of hGLP-1R (P43220 24-463): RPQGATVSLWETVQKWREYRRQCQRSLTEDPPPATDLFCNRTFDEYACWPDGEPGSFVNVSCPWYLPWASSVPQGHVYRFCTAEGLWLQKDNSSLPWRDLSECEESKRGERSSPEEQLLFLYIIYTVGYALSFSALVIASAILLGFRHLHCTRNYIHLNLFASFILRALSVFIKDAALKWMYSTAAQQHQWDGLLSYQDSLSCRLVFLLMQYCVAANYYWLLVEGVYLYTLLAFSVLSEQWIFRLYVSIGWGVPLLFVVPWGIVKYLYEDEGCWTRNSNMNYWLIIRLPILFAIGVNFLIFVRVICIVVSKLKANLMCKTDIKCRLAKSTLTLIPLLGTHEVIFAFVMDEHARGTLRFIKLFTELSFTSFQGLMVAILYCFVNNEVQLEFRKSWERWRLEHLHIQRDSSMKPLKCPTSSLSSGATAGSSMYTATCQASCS

Binder	Relative cAMP EC50, nM (0.1% casein)	Relative cAMP EC50	cAMP Rel EC50 (1% HSA)
B1	9.69 nM	–	–
B2	–	0.274 nM	100 nM
B3	–	4.4 nM	1060 nM
B4	–	1.56 nM	371 nM
B5	–	0.555 nM	172 nM
B6	–	0.649 nM	–
B7	–	0.426 nM	–
B8	–	1.02 nM	–
B9	–	0.426 nM	–
B10	–	1.32 nM	234 nM
B11	–	1.31 nM	–
B12	–	1.61 nM	473 nM
B13	–	1.3 nM	462 nM
B14	–	0.698 nM	111 nM
B15	–	2.58 nM	328 nM
B16	–	0.947 nM	119 nM

Target: T1, human GIP receptor (human)
Assay: cell-based or functional assay

Binder	Relative cAMP EC50, nM (0.1% casein)	Relative cAMP EC50	cAMP Rel EC50 (1% HSA)
B1	0.387 nM	–	–
B2	–	0.345 nM	65.9 nM
B3	–	0.164 nM	20.7 nM
B4	–	0.351 nM	82.7 nM
B5	–	0.3 nM	83.7 nM
B6	–	0.0814 nM	–
B7	–	0.0342 nM	–
B8	–	0.112 nM	–
B9	–	0.0303 nM	–
B10	–	0.474 nM	62.8 nM
B11	–	0.0673 nM	–
B12	–	0.312 nM	63.3 nM
B13	–	0.544 nM	91.1 nM
B14	–	0.378 nM	52.8 nM
B15	–	0.274 nM	55.3 nM
B16	–	0.485 nM	60.1 nM

Target: human glucagon receptor (human) (UniProt P47871)
Assay: cell-based or functional assay

Sequence of human glucagon receptor (human) (P47871 26-477): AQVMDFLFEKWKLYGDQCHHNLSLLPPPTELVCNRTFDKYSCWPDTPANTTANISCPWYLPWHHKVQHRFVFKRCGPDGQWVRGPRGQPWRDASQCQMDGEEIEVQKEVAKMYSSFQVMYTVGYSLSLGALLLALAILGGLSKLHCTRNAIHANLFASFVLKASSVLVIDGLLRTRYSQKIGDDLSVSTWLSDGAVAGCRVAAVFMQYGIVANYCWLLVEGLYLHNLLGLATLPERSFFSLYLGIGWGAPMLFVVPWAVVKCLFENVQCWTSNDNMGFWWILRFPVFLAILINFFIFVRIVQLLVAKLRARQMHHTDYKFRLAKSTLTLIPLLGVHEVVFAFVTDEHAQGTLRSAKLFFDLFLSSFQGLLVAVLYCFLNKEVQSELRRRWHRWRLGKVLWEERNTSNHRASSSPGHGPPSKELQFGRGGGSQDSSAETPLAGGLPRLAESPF

Binder	Relative cAMP EC50, nM (0.1% casein)	Relative cAMP EC50	cAMP Rel EC50 (1% HSA)
B1	8.25 nM	–	–
B2	–	3.7 nM	1030 nM
B3	–	5.74 nM	1410 nM
B4	–	2.43 nM	774 nM
B5	–	5.34 nM	1500 nM
B6	–	16.2 nM	–
B7	–	15.3 nM	–
B8	–	10.7 nM	–
B9	–	7.29 nM	–
B10	–	2.42 nM	1500 nM
B11	–	5.89 nM	–
B12	–	3.04 nM	1400 nM
B13	–	10.3 nM	2040 nM
B14	–	5.03 nM	1970 nM
B15	–	6.87 nM	1170 nM
B16	–	4.81 nM	1650 nM
